Reference: patent publication US20170355730

T1: cFΦR4-PCP (not fully specified)
T1 chain: FXRRRRQXDEXLI

T2: Antp-PCP
T2 chain: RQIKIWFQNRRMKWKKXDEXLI

T3: R9-PCP
T3 chain: RRRRRRRRRXDEXLI


What was measured:
cFΦR4-PCP = molecular target: T1, cFΦR4-PCP
Antp-PCP = molecular target: T2, Antp-PCP
R9-PCP = molecular target: T3, R9-PCP

Row | Protein | kcat/KM (cFΦR4-PCP) [M⁻¹ s⁻¹] | kcat/KM (Antp-PCP) [M⁻¹ s⁻¹] | kcat/KM (R9-PCP) [M⁻¹ s⁻¹]
1 | VHR (protein) MSGSFELSVQDLNDLLSDGSGCYSLPSQPCNEVTPRIYVGNASVAQDIPKLQKLGITHVLNAAEGRSFMHVNTNANFYKDSGITYLGIKANDTQEFNLSAYFERAADFIDQALAQKNGRVLVHCREGYSRSPTLVIAYLMMRQKMDVKSALSIVRQNREIGPNDGFLAQLCQLNDRLAKEGKLKP | 2460 | 2030 | 6240
2 | TCPTP (protein) MPTTIEREFEELDTQRRWQPLYLEIRNESHDYPHRVAKFPENRNRNRYRDVSPYDHSRVKLQNAENDYINASLVDIEEAQRSYILTQGPLPNTCCHFWLMVWQQKTKAVVMLNRIVEKESVKCAQYWPTDDQEMLFKETGFSVKLLSEDVKSYYTVHLLQLENINSGETRTISHFHYTTWPDFGVPESPASFLNFLFKVRESGSLNPDHGPAVIHCSAGIGRSGTFSLVDTCLVLMEKGDDINIKQVLLNMRKYRMGLIQTPDQLRFSYMAIIEGAKCIKGDSSIQKRWKELSKEDLSPAFDHSPNKIMTEKYN | 2780 | 970 | 457
3 | CD45 (protein) YKIYDLHKKRSCNLDEQQELVERDDEKQLMNVEPIHADILLETYKRKIADEGRLFLAEFQSIPRVFSKFPIKEARKPFNQNKNRYVDILPYDYNRVELSEINGDAGSNYINASYIDGFKEPRKYIAAQGPRDETVDDFWRMIWEQKATVIVMVTRCEEGNRNKCAEYWPSMEEGTRAFGDVVVKINQHKRCPDYIIQKLNIVNKKEKATGREVTHIQFTSWPDHGVPEDPHLLLKLRRRVNAFSNFFSGPIVVHCSAGVGRTGTYIGIDAMLEGLEAENKVDVYGYVVKLRRQRCLMVQVEAQYILIHQALVEYNQFGETEVNLSELHPYLHNMKKRDPPSEPSPLEAEFQRLPSYRSWRTQHIGNQEENKSKNRNSNVIPYDYNRVPLKHELEMSKESEHDSDESSDDDSDSEEPSKYINASFIMSYWKPEVMIAAQGPLKETIGDFWQMIFQRKVKVIVMLTELKHGDQEICAQYWGEGKQTYGDIEVDLKDTDKSSTYTLRVFELRHSKRKDSRTVYQYQYTNWSVEQLPAEPKELISMIQVVKQKLPQKNSSEGNKHHKSTPLLIHCRDGSQQTGIFCALLNLLESAETEEVVDIFQVVKALRKARPGMVSTFEQYQFLYDVIASTYPAQNGQVKKNNHQEDKIEFDNEVDKVKQDANCVNPLGAPEKLPEAKEQAEGSEPTSGTEGPEHSVNGPASPALNQGS | 35100 | 22300 | 2940
4 | SHP2 (protein) AEIESRVRELSKLAETTDKVKQGFWEEFETLQQQECKLLYSRKEGQRQENKNKNRYKNILPFDHTRVVLHDGDPNEPVSDYINANIIMPEFETKCNNSKPKKSYIATQGCLQNTVNDFWRMVFQENSRVIVMTTKEVERGKSKCVKYWPDEYALKEYGVMRVRNVKESAAHDYTLRELKLSKVGQGNTERTVWQYHFRTWPDHGVPSDPGGVLDFLEEVHHKQESIMDAGPVVVHCSAGIGRTGTFIVIDILIDIIREKGVDCDIDVPKTIQMVRSQRSGMVQTEAQYRFIYMAVQHYIETLQRR | 7400 | 2210 | 248
5 | PTP1B (construct not stated) (protein) MEMEKEFEQIDKSGSWAAIYQDIRHEASDFPCRVAKLPKNKNRNRYRDVSPFDHSRIKLHQEDNDYINASLIKMEEAQRSYILTQGPLPNTCGHFWEMVWEQKSRGVVMLNRVMEKGSLKCAQYWPQKEEKEMIFEDTNLKLTLISEDIKSYYTVRQLELENLTTQETREILHFHYTTWPDFGVPESPASFLNFLFKVRESGSLSPEHGPVVVHCSAGIGRSGTFCLADTCLLLMDKRKDPSSVDIKKVLLEMRKFRMGLIQTADQLRFSYLAVIEGAKFIMGDSSVQDQWKELSHEDLEPPPEHIPPPPRPPKRILEPHN | 37100 | 17400 | 14700
